The values that follow come from patent US20260167721A1 (ABLEXIS, published 2026).

The target of assay [1] is T1, human CD3 (TCR/CD3 complex on the cell surface) (human, UniProt P07766 23-207; P04234 22-171; P09693 23-182).
T1 construct: whole, on cells; Native CD3 on human Pan-T cells or Jurkat wild-type cells; also called CD3 on Pan-T cells; CD3 on Jurkat WT cells
Briefly: flow cytometry, Jurkat WT cells, 1 ug/mL.

Assay [2] concerns the target T1, human CD3 (TCR/CD3 complex on the cell …). Put plainly: flow cytometry, Jurkat WT gMFI over Jurkat KO gMFI, 10 ug/mL. Background: Flow cytometry measures light scatter and fluorescence of single cells or particles in a stream.
Assay [3] shares this target. Put plainly: flow cytometry, Pan-T cells, 1 ug/mL.
Assay [4] has the same target. Briefly: flow cytometry, Pan-T cells, 10 ug/mL.
The target is the same in assay [5]. Put plainly: flow cytometry, Jurkat WT gMFI over Jurkat KO gMFI, 1 ug/mL.
Assay [6] has the same target. Put plainly: flow cytometry, Jurkat WT cells, 10 ug/mL.

T1 sequence (P07766 23-207, chain 1 of 3): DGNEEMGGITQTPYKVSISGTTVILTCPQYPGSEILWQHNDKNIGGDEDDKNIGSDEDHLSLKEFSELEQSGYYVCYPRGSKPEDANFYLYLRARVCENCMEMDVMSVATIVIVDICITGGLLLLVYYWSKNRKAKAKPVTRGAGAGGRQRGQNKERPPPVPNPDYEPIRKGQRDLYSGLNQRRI
T1 sequence (P04234 22-171, chain 2 of 3): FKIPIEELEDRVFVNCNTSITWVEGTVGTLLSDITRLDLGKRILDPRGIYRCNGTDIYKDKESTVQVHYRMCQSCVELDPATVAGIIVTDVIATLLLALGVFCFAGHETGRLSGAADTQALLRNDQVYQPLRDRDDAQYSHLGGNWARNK
T1 sequence (P09693 23-182, chain 3 of 3): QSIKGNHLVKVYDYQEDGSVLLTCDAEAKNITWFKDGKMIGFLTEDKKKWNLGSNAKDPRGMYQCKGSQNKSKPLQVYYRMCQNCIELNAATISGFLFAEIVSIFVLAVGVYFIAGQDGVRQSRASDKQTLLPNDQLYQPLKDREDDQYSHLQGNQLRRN

B1: CD3 × CD33-BspAb97 (bispecific antibody)
chain 1: SYELTQPPSVSVSPGQTARITCSGDALPKKYAYWYQQKSGQAPVLVIYEDSKRPSGIPERFSGSSSGTMATLTISGAQVEDEADYYCYSTDSSGNHWVFGCGTKLTVLGGGGSGGGGSGGGGSGGGGSEVQLVESGGGLVKPGGSLRLSCAASGFTFSNYYMNWVRQAPGKCLERVSSISSSSNYIYYADSVKGRFTISRDNAKNSLYLQMNSLRAEDTAVYYCARDRRELPLDYWGQGTVVTVSSDKTHTCPPCPAPEFEGGPSVFLFPPKPKDTLMISRTPEVTCVVVDVSHEDPEVKFNWYVDGVEVHNAKTKPREEQYNSTYRVVSVLTVLHQDWLNGKEYKCKVSNKALPASIEKTISKAKGQPREPQVYTLPPCREEMTKNQVSLWCLVKGFYPSDIAVEWESNGQPENNYKTTPPVLDSDGSFFLYSKLTVDKSRWQQGNVFSCSVMHEALHNHYTQKSLSLSPGK
chain 2: EVQLVQSGAEVKKPGSSVKVSCKASGYTITDSNIHWVRQAPGQSLEWIGYIYPYNGGTDYNQKFKNRATLTVDNPTNTAYMELSSLRSEDTAFYYCVNGNPWLAYWGQGTLVTVSSASTKGPSVFPLAPSSKSTSGGTAALGCLVKDYFPEPVTVSWNSGALTSGVHTFPAVLQSSGLYSLSSVVTVPSSSLGTQTYICNVNHKPSNTKVDKRVEPKSCDKTHTCPPCPAPEFEGGPSVFLFPPKPKDTLMISRTPEVTCVVVDVSHEDPEVKFNWYVDGVEVHNAKTKPREEQYNSTYRVVSVLTVLHQDWLNGKEYKCKVSNKALPASIEKTISKAKGQPREPQVCTLPPSREEMTKNQVSLSCAVKGFYPSDIAVEWESNGQPENNYKTTPPVLDSDGSFFLVSKLTVDKSRWQQGNVFSCSVMHEALHNRFTQKSLSLSPGK
chain 3: DIQLTQSPSTLSASVGDRVTITCRASESLDNYGIRFLTWFQQKPGKAPKLLMYAASNQGSGVPSRFSGSGSGTEFTLTISSLQPDDFATYYCQQTKEVPWSFGQGTKVEVKRTVAAPSVFIFPPSDEQLKSGTASVVCLLNNFYPREAKVQWKVDNALQSGNSQESVTEQDSKDSTYSLSSTLTLSKADYEKHKVYACEVTHQGLSSPVTKSFNRGEC
In the case of B1, the gMFI in assay [1] amounted to 3890 gMFI; in assay [3], 9270 gMFI; in assay [4], 53000 gMFI; in assay [6], 8450 gMFI. Also, the “Jurkat WT/KO (Fold)” value in assay [2] was found to be 3.7 fold; in assay [5], 1.7 fold. Further, the “% Positive” value in assay [3] was determined as 66.3%; in assay [4], 98.5%.

B2: CD3 × CD33-BspAb98 (bispecific antibody)
scFv-Fc: NFMLTQPHSVSESPGKTVTISCTRSSGSIASNYVQWYQQRPGSSPTTVIYEDNQRPSGVPDRFSGSIDSSSNSASLTISGLKTEDEADYYCQSYDSSNRVFGCGTKLTVLGGGGSGGGGSGGGGSGGGGSEVHLVESGGGLVKPGGSLRLSCAASGFTFSRYSMNWVRQAPGKCLEWVSSISRSSSYIYYADSVKGRFTISRDNAKNSLYLQMNSLRAEDTAVYYCAREPRTLGMDYWGQGILVTVSSGGGGSDKTHTCPPCPAPEFEGGPSVFLFPPKPKDTLMISRTPEVTCVVVDVSHEDPEVKFNWYVDGVEVHNAKTKPREEQYNSTYRVVSVLTVLHQDWLNGKEYKCKVSNKALPASIEKTISKAKGQPREPQVYTLPPCREEMTKNQVSLWCLVKGFYPSDIAVEWESNGQPENNYKTTPPVLDSDGSFFLYSKLTVDKSRWQQGNVFSCSVMHEALHNHYTQKSLSLSPGK
heavy: EVQLVQSGAEVKKPGSSVKVSCKASGYTITDSNIHWVRQAPGQSLEWIGYIYPYNGGTDYNQKFKNRATLTVDNPTNTAYMELSSLRSEDTAFYYCVNGNPWLAYWGQGTLVTVSSASTKGPSVFPLAPSSKSTSGGTAALGCLVKDYFPEPVTVSWNSGALTSGVHTFPAVLQSSGLYSLSSVVTVPSSSLGTQTYICNVNHKPSNTKVDKRVEPKSCDKTHTCPPCPAPEFEGGPSVFLFPPKPKDTLMISRTPEVTCVVVDVSHEDPEVKFNWYVDGVEVHNAKTKPREEQYNSTYRVVSVLTVLHQDWLNGKEYKCKVSNKALPASIEKTISKAKGQPREPQVCTLPPSREEMTKNQVSLSCAVKGFYPSDIAVEWESNGQPENNYKTTPPVLDSDGSFFLVSKLTVDKSRWQQGNVFSCSVMHEALHNRFTQKSLSLSPGK
light: DIQLTQSPSTLSASVGDRVTITCRASESLDNYGIRFLTWFQQKPGKAPKLLMYAASNQGSGVPSRFSGSGSGTEFTLTISSLQPDDFATYYCQQTKEVPWSFGQGTKVEVKRTVAAPSVFIFPPSDEQLKSGTASVVCLLNNFYPREAKVQWKVDNALQSGNSQESVTEQDSKDSTYSLSSTLTLSKADYEKHKVYACEVTHQGLSSPVTKSFNRGEC
notes: KiH heterodimer
For B2, the gMFI in assay [1] is 43500 gMFI; in assay [3], 197000 gMFI; in assay [4] it was 278000 gMFI; in assay [6], 47700 gMFI. In addition, the “Jurkat WT/KO (Fold)” value was found to be 12.7 fold in assay [2] and 11.2 fold in assay [5]. For the same molecule, the “% Positive” value in assay [3] stood at 99.8%; in assay [4], 99.6%.

B3: CD3 × CD33-BspAb100 (bispecific antibody)
scFv-Fc: EVQLVESGGGLVKPGGSLRLSCAASGFTFSNYYMNWVRQAPGKCLERVSSISSSSNYIYYADSVKGRFTISRDNAKNSLYLQMNSLRAEDTAVYYCARDRRELPLDYWGQGTVVTVSSGGGGSGGGGSGGGGSGGGGSSYELTQPPSVSVSPGQTARITCSGDALPKKYAYWYQQKSGQAPVLVIYEDSKRPSGIPERFSGSSSGTMATLTISGAQVEDEADYYCYSTDSSGNHWVFGCGTKLTVLGGGGSDKTHTCPPCPAPEFEGGPSVFLFPPKPKDTLMISRTPEVTCVVVDVSHEDPEVKFNWYVDGVEVHNAKTKPREEQYNSTYRVVSVLTVLHQDWLNGKEYKCKVSNKALPASIEKTISKAKGQPREPQVYTLPPCREEMTKNQVSLWCLVKGFYPSDIAVEWESNGQPENNYKTTPPVLDSDGSFFLYSKLTVDKSRWQQGNVFSCSVMHEALHNHYTQKSLSLSPGK
heavy: EVQLVQSGAEVKKPGSSVKVSCKASGYTITDSNIHWVRQAPGQSLEWIGYIYPYNGGTDYNQKFKNRATLTVDNPTNTAYMELSSLRSEDTAFYYCVNGNPWLAYWGQGTLVTVSSASTKGPSVFPLAPSSKSTSGGTAALGCLVKDYFPEPVTVSWNSGALTSGVHTFPAVLQSSGLYSLSSVVTVPSSSLGTQTYICNVNHKPSNTKVDKRVEPKSCDKTHTCPPCPAPEFEGGPSVFLFPPKPKDTLMISRTPEVTCVVVDVSHEDPEVKFNWYVDGVEVHNAKTKPREEQYNSTYRVVSVLTVLHQDWLNGKEYKCKVSNKALPASIEKTISKAKGQPREPQVCTLPPSREEMTKNQVSLSCAVKGFYPSDIAVEWESNGQPENNYKTTPPVLDSDGSFFLVSKLTVDKSRWQQGNVFSCSVMHEALHNRFTQKSLSLSPGK
light: DIQLTQSPSTLSASVGDRVTITCRASESLDNYGIRFLTWFQQKPGKAPKLLMYAASNQGSGVPSRFSGSGSGTEFTLTISSLQPDDFATYYCQQTKEVPWSFGQGTKVEVKRTVAAPSVFIFPPSDEQLKSGTASVVCLLNNFYPREAKVQWKVDNALQSGNSQESVTEQDSKDSTYSLSSTLTLSKADYEKHKVYACEVTHQGLSSPVTKSFNRGEC
notes: KiH heterodimer
With B3, the gMFI in assay [1] was determined as 30000 gMFI; in assay [3], 240000 gMFI; in assay [4], 348000 gMFI; in assay [6] it was 39600 gMFI. For the same molecule, the “Jurkat WT/KO (Fold)” value was 11.9 fold in assay [2] and 9.3 fold in assay [5]. For the same molecule, the “% Positive” value in assay [3] and in assay [4] was 99.5% each time.

B4: CD3 × CD33-BspAb99 (bispecific antibody)
scFv-Fc: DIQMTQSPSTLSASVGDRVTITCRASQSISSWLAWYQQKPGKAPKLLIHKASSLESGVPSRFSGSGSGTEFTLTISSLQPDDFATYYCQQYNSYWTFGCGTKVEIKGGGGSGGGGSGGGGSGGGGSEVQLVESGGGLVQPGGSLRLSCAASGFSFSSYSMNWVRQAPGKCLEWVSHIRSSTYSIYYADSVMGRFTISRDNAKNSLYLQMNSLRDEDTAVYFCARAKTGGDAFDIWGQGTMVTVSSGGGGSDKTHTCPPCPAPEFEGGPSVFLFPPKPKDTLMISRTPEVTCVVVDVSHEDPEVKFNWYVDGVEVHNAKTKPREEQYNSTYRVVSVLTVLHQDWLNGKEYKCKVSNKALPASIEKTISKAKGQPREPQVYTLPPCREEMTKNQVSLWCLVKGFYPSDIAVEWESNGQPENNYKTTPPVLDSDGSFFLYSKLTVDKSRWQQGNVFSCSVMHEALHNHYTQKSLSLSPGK
heavy: EVQLVQSGAEVKKPGSSVKVSCKASGYTITDSNIHWVRQAPGQSLEWIGYIYPYNGGTDYNQKFKNRATLTVDNPTNTAYMELSSLRSEDTAFYYCVNGNPWLAYWGQGTLVTVSSASTKGPSVFPLAPSSKSTSGGTAALGCLVKDYFPEPVTVSWNSGALTSGVHTFPAVLQSSGLYSLSSVVTVPSSSLGTQTYICNVNHKPSNTKVDKRVEPKSCDKTHTCPPCPAPEFEGGPSVFLFPPKPKDTLMISRTPEVTCVVVDVSHEDPEVKFNWYVDGVEVHNAKTKPREEQYNSTYRVVSVLTVLHQDWLNGKEYKCKVSNKALPASIEKTISKAKGQPREPQVCTLPPSREEMTKNQVSLSCAVKGFYPSDIAVEWESNGQPENNYKTTPPVLDSDGSFFLVSKLTVDKSRWQQGNVFSCSVMHEALHNRFTQKSLSLSPGK
light: DIQLTQSPSTLSASVGDRVTITCRASESLDNYGIRFLTWFQQKPGKAPKLLMYAASNQGSGVPSRFSGSGSGTEFTLTISSLQPDDFATYYCQQTKEVPWSFGQGTKVEVKRTVAAPSVFIFPPSDEQLKSGTASVVCLLNNFYPREAKVQWKVDNALQSGNSQESVTEQDSKDSTYSLSSTLTLSKADYEKHKVYACEVTHQGLSSPVTKSFNRGEC
notes: KiH heterodimer
For B4, the gMFI in assay [1] is 1660 gMFI; in assay [3], 1810 gMFI; in assay [4], 1830 gMFI; in assay [6], 1670 gMFI. Moreover, the “Jurkat WT/KO (Fold)” value in assay [2] came to 1 fold; in assay [5], 0.9 fold. Besides, the entries for the “% Positive” value in assay [3] and in assay [4] were 1.2% and 1.5%, respectively.
